Biological target: T1, AAV9 capsid (adeno-associated virus serotype 9, UniProt Q6JC40)
T1 construct: also called wtAAV9; AAV9 vector; copies: 60
Assay: far-Western, overlay or dot blot; native dot immunoblot: native capsids adsorbed onto nitrocellulose; human mAbs at ~1 µg/ml in PBS with 6% milk, 0.1% Tween-20, 1 h; anti-human-HRP
Details: both partners purified

Binder | binding result
mAb3-6 (antibody, V domains shown) VH: EVQLVESGGGLVQPGGSLRLSCSASGFHFSSYEMNWVRQAPGKGLEWVSYISSSGTYIDYADSVKGRFTISRDNPANSLYLQMYSLRAEDTAVYYCARRLWFGELPYSYYYGMDVWGQGTTVTVSS VL: ALTQPASVSGSPGQSITISCTGTSSDIGGYNYVSWYQQHPGKAPELLIFDVSNRPSGVSNRFSGSKSGNTASLTISGLQAEDEADYHCCSYTRTSTVIFGGGTKLTVL | binds
mAb3-7 (antibody, V domains shown) VH: QVQLQESGPGLVKPSETLSLTCTVSGGSISNYYWNWIRQPPGKGLEWIGYVHYSGSTNYNPSLKSRVSVSVDTSKNQFSLNLGSVTAADTAVYYCARQSRSYYNEVITDPKYNFDYWGQGTLVTVSS VL: QSALTQPASVSGSPGQSITISCTGTSSDVGGYDYVSWYQQHPGKAPKLMIYDVSNRPSGVSNRFSGSKSGNTASLTISGLQAEDEADYYCSSYTSISTLVFGGGTKLTVL | binds

Source: PMC12009303, “Structural characterization of antibody-responses following Zolgensma treatment for AAV capsid engineering to expand patient cohorts” (Nature Communications, 2025)
